Measured values taken from IntAct's records for PubMed 28891236.

B1: Adhesion G protein-coupled receptor B2 (Homo sapiens), O60241 (parent)
chain: MENTGWMGKGHRMTPACPLLLSVILSLRLATAFDPAPSACSALASGVLYGAFSLQDLFPTIASGCSWTLENPDPTKYSLYLRFNRQEQVCAHFAPRLLPLDHYLVNFTCLRPSPEEAVAQAESEVGRPEEEEAEAAAGLELCSGSGPFTFLHFDKNFVQLCLSAEPSEAPRLLAPAALAFRFVEVLLINNNNSSQFTCGVLCRWSEECGRAAGRACGFAQPGCSCPGEAGAGSTTTTSPGPPAAHTLSNALVPGGPAPPAEADLHSGSSNDLFTTEMRYGEEPEEEPKVKTQWPRSADEPGLYMAQTGDPAAEEWSPWSVCSLTCGQGLQVRTRSCVSSPYGTLCSGPLRETRPCNNSATCPVHGVWEEWGSWSLCSRSCGRGSRSRMRTCVPPQHGGKACEGPELQTKLCSMAACPVEGQWLEWGPWGPCSTSCANGTQQRSRKCSVAGPAWATCTGALTDTRECSNLECPATDSKWGPWNAWSLCSKTCDTGWQRRFRMCQATGTQGYPCEGTGEEVKPCSEKRCPAFHEMCRDEYVMLMTWKKAAAGEIIYNKCPPNASGSASRRCLLSAQGVAYWGLPSFARCISHEYRYLYLSLREHLAKGQRMLAGEGMSQVVRSLQELLARRTYYSGDLLFSVDILRNVTDTFKRATYVPSADDVQRFFQVVSFMVDAENKEKWDDAQQVSPGSVHLLRVVEDFIHLVGDALKAFQSSLIVTDNLVISIQREPVSAVSSDITFPMRGRRGMKDWVRHSEDRLFLPKEVLSLSSPGKPATSGAAGSPGRGRGPGTVPPGPGHSHQRLLPADPDESSYFVIGAVLYRTLGLILPPPRPPLAVTSRVMTVTVRPPTQPPAEPLITVELSYIINGTTDPHCASWDYSRADASSGDWDTENCQTLETQAAHTRCQCQHLSTFAVLAQPPKDLTLELAGSPSVPLVIGCAVSCMALLTLLAIYAAFWRFIKSERSIILLNFCLSILASNILILVGQSRVLSKGVCTMTAAFLHFFFLSSFCWVLTEAWQSYLAVIGRMRTRLVRKRFLCLGWGLPALVVAVSVGFTRTKGYGTSSYCWLSLEGGLLYAFVGPAAVIVLVNMLIGIIVFNKLMARDGISDKSKKQRAGSERCPWASLLLPCSACGAVPSPLLSSASARNAMASLWSSCVVLPLLALTWMSAVLAMTDRRSVLFQALFAVFNSAQGFVITAVHCFLRREVQDVVKCQMGVCRADESEDSPDSCKNGQLQILSDFEKDVDLACQTVLFKEVNTCNPSTITGTLSRLSLDEDEEPKSCLVGPEGSLSFSPLPGNILVPMAASPGLGEPPPPQEANPVYMCGEGGLRQLDLTWLRPTEPGSEGDYMVLPRRTLSLQPGGGGGGGEDAPRARPEGTPRRAAKTVAHTEGYPSFLSVDHSGLGLGPAYGSLQNPYGMTFQPPPPTPSARQVPEPGERSRTMPRTVPGSTMKMGSLERKKLRYSDLDFEKVMHTRKRHSELYHELNQKFHTFDRYRSQSTAKREKRWSVSSGGAAERSVCTDKPSPGERPSLSQHRRHQSWSTFKSMTLGSLPPKPRERLTLHRAAAWEPTEPPDGDFQTEV

Variants of: B1
Settings: with gnaz_human GNAZ

Row | Variant | effect of a mutation on the interaction
1 | R1465W | with no effect

Variants of: B1
Settings: with gnai1_human GNAI1, P63096
Chain of gnai1_human GNAI1, P63096 (P63096 whole entry): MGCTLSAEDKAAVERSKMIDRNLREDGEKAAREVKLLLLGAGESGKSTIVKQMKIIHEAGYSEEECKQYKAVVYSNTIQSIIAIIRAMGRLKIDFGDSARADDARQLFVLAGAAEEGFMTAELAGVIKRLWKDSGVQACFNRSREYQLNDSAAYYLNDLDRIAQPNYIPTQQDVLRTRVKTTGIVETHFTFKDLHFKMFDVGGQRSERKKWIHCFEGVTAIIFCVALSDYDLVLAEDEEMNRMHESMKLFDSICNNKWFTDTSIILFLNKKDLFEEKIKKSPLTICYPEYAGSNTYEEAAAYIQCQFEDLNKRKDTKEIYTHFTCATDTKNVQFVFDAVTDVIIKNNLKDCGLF

Row | Variant | effect of a mutation on the interaction
2 | R1465W | causing an interaction

Variants of: B1
Settings: with arrb2_rat Arrb2, P29067
Chain of arrb2_rat Arrb2, P29067 (P29067 whole entry): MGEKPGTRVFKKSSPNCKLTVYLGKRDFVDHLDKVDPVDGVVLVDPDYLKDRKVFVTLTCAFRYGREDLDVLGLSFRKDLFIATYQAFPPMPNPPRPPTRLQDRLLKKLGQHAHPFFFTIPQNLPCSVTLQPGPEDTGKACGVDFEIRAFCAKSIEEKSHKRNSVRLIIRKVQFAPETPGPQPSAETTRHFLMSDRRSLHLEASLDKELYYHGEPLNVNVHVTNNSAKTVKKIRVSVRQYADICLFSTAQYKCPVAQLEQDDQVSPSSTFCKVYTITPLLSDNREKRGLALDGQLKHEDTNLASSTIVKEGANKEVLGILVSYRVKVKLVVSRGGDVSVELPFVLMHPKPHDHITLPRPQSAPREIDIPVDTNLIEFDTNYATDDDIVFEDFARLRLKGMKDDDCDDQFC

Row | Variant | effect of a mutation on the interaction
3 | R1465W | with no effect

Variants of: B1
Settings: with sh3g2_human SH3GL2, Q99962
Chain of sh3g2_human SH3GL2, Q99962 (Q99962 whole entry): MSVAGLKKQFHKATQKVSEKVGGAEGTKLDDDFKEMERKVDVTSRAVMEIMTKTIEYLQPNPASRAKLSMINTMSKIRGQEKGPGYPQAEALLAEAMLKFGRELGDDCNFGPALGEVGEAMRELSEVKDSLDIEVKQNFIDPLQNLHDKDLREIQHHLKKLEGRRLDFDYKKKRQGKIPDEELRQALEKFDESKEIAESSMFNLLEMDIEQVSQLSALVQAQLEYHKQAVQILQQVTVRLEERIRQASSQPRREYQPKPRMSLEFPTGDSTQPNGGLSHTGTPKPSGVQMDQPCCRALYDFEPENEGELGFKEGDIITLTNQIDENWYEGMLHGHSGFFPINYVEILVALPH

Row | Variant | effect of a mutation on the interaction
4 | R1465W | disrupting interaction strength
